Non-standard residues stand in square brackets, D forms with d. Primed or numbered codes have the meaning given here. No end group written: not given here. *: point of attachment. FITC = O=C1OC2(c3ccc(O)cc3Oc3cc(O)ccc32)c2ccc(NC(=S)*)cc21; pY = N[C@@H](Cc1ccc(OP(=O)(O)O)cc1)C(=O)O; FITC′ = not defined here
B1: EPQp…-(FITC) (peptide)
peptide: EPQ[pY]EEIPIYLK-{FITC′}
B2: (FITC)-TEGQpYQPQPA (peptide)
peptide: {FITC}-TEGQ[pY]QPQPA
B3: (FITC)-ADNDpYIIPLPD (peptide)
peptide: {FITC}-ADND[pY]IIPLPD

Assays:
[1] = target: the eight SFK SH2 domains; assay: fluorescence polarisation
[2] = target: Lck SH2 domain (UniProt P06239 118-231, biotin on the Avi-tag (yeast binding assay, pull-down)); assay: fluorescence polarisation
Lck SH2 domain, sequence (P06239 118-231): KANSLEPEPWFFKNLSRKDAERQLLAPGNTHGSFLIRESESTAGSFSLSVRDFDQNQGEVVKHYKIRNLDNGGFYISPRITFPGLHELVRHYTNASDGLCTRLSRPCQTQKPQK

Row | Binder | Kd [1] [nM] | Kd [2] [nM]
1 | B1 | 310 to 675 | 
2 | B2 |  | 2200
3 | B3 |  | 955

— paper PMC5417323 (Journal of Molecular Biology, 2017)
